Sequences and labels used below:
T1: EsCas13d, nuclease-dead (Eubacterium siraeum, UniProt B0MS50, R295A;H300A;R849A;H854A)
T1 sequence: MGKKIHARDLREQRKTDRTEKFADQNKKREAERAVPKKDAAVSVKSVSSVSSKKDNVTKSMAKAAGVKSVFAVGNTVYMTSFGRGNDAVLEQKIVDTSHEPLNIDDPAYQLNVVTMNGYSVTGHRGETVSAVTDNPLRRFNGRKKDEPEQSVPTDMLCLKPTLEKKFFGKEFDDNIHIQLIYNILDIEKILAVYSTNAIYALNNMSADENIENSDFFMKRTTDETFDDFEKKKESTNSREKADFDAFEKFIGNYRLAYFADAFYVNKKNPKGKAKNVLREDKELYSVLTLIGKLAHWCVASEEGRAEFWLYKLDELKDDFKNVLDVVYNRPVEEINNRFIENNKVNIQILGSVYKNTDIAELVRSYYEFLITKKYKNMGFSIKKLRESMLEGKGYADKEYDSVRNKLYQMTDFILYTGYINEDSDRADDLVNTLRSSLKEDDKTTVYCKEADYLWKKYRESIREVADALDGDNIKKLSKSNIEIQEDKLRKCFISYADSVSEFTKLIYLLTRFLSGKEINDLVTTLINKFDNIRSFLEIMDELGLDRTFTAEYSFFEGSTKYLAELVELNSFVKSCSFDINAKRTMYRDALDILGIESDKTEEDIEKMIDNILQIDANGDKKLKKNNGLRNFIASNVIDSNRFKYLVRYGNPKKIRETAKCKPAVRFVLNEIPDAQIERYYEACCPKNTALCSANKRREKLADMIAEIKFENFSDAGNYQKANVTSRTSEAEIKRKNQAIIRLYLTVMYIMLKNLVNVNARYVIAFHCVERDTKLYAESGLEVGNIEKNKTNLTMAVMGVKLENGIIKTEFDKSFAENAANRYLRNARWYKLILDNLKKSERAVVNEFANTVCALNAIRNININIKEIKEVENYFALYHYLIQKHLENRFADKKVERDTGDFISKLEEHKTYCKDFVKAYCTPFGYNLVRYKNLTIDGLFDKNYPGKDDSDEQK

B1: target 1 C4A,A20U (mixed)
RNA 1: CACCCGUGCAAAAAUGCAGGGGUCUAAAACUGAGCGGAUAACCUCUCUAUGG
RNA 2: GGGAAUGGAUCCACAUCUACGAAUUCGUACCUUAGAGAGGUUAUCCGAUCACCGAGAUCGGAAGAGCACACGU
B2: target 1 del9,del11 (mixed)
RNA 1: CACCCGUGCAAAAAUGCAGGGGUCUAAAACUGAGCGGAUAACCUCUCUAUGG
RNA 2: GGGAAUGGAUCCACAUCUACGAAUUCGUACCAUAGAGAGGUUCCGCUCACCGAGAUCGGAAGAGCACACGU
B3: target 1 C4G,C7G (mixed)
RNA 1: CACCCGUGCAAAAAUGCAGGGGUCUAAAACUGAGCGGAUAACCUCUCUAUGG
RNA 2: GGGAAUGGAUCCACAUCUACGAAUUCGUACCAUAGAGAGGUUAUGCGGUCACCGAGAUCGGAAGAGCACACGU
B4: target 1 insU 3' of 18,insG 3' of 4 (mixed)
RNA 1: CACCCGUGCAAAAAUGCAGGGGUCUAAAACUGAGCGGAUAACCUCUCUAUGG
RNA 2: GGGAAUGGAUCCACAUCUACGAAUUCGUACCAUAUGAGAGGUUAUCCGCGUCACCGAGAUCGGAAGAGCACACGU
B5: target 1 insC 3' of 22,insG 3' of 6 (mixed)
RNA 1: CACCCGUGCAAAAAUGCAGGGGUCUAAAACUGAGCGGAUAACCUCUCUAUGG
RNA 2: GGGAAUGGAUCCACAUCUACGAAUUCGUACCCAUAGAGAGGUUAUCCGGCUCACCGAGAUCGGAAGAGCACACGU
B6: target 1 insG 3' of 14,insA 3' of 6 (mixed)
RNA 1: CACCCGUGCAAAAAUGCAGGGGUCUAAAACUGAGCGGAUAACCUCUCUAUGG
RNA 2: GGGAAUGGAUCCACAUCUACGAAUUCGUACCAUAGAGAGGGUUAUCCAGCUCACCGAGAUCGGAAGAGCACACGU
B7: target 1 insU 3' of 21,insA 3' of 3 (mixed)
RNA 1: CACCCGUGCAAAAAUGCAGGGGUCUAAAACUGAGCGGAUAACCUCUCUAUGG
RNA 2: GGGAAUGGAUCCACAUCUACGAAUUCGUACCUAUAGAGAGGUUAUCCGCUACACCGAGAUCGGAAGAGCACACGU
B8: target 1 insC 3' of 5 (mixed)
RNA 1: CACCCGUGCAAAAAUGCAGGGGUCUAAAACUGAGCGGAUAACCUCUCUAUGG
RNA 2: GGGAAUGGAUCCACAUCUACGAAUUCGUACCAUAGAGAGGUUAUCCGCCUCACCGAGAUCGGAAGAGCACACGU
B9: target 1 insC 3' of 16,insA 3' of 7 (mixed)
RNA 1: CACCCGUGCAAAAAUGCAGGGGUCUAAAACUGAGCGGAUAACCUCUCUAUGG
RNA 2: GGGAAUGGAUCCACAUCUACGAAUUCGUACCAUAGACGAGGUUAUCACGCUCACCGAGAUCGGAAGAGCACACGU
B10: target 1 insC 3' of 15,insC 3' of 15 (mixed)
RNA 1: CACCCGUGCAAAAAUGCAGGGGUCUAAAACUGAGCGGAUAACCUCUCUAUGG
RNA 2: GGGAAUGGAUCCACAUCUACGAAUUCGUACCAUAGAGCCAGGUUAUCCGCUCACCGAGAUCGGAAGAGCACACGU
B11: target 1 insU 3' of 12,insC 3' of 8 (mixed)
RNA 1: CACCCGUGCAAAAAUGCAGGGGUCUAAAACUGAGCGGAUAACCUCUCUAUGG
RNA 2: GGGAAUGGAUCCACAUCUACGAAUUCGUACCAUAGAGAGGUUUAUCCCGCUCACCGAGAUCGGAAGAGCACACGU
B12: target 1 insU 3' of 21,insU 3' of 9 (mixed)
RNA 1: CACCCGUGCAAAAAUGCAGGGGUCUAAAACUGAGCGGAUAACCUCUCUAUGG
RNA 2: GGGAAUGGAUCCACAUCUACGAAUUCGUACCUAUAGAGAGGUUAUUCCGCUCACCGAGAUCGGAAGAGCACACGU
B13: target 1 complement block 4-9 (mixed)
RNA 1: CACCCGUGCAAAAAUGCAGGGGUCUAAAACUGAGCGGAUAACCUCUCUAUGG
RNA 2: GGGAAUGGAUCCACAUCUACGAAUUCGUACCAUAGAGAGGUUUAGGCGUCACCGAGAUCGGAAGAGCACACGU
B14: target 1 G5A,C7G (mixed)
RNA 1: CACCCGUGCAAAAAUGCAGGGGUCUAAAACUGAGCGGAUAACCUCUCUAUGG
RNA 2: GGGAAUGGAUCCACAUCUACGAAUUCGUACCAUAGAGAGGUUAUGCACUCACCGAGAUCGGAAGAGCACACGU
B15: target 1 G5A,A9G (mixed)
RNA 1: CACCCGUGCAAAAAUGCAGGGGUCUAAAACUGAGCGGAUAACCUCUCUAUGG
RNA 2: GGGAAUGGAUCCACAUCUACGAAUUCGUACCAUAGAGAGGUUGUCCACUCACCGAGAUCGGAAGAGCACACGU
B16: target 1 C7U,G17C (mixed)
RNA 1: CACCCGUGCAAAAAUGCAGGGGUCUAAAACUGAGCGGAUAACCUCUCUAUGG
RNA 2: GGGAAUGGAUCCACAUCUACGAAUUCGUACCAUACAGAGGUUAUUCGCUCACCGAGAUCGGAAGAGCACACGU
B17: target 1 C4G,U8G (mixed)
RNA 1: CACCCGUGCAAAAAUGCAGGGGUCUAAAACUGAGCGGAUAACCUCUCUAUGG
RNA 2: GGGAAUGGAUCCACAUCUACGAAUUCGUACCAUAGAGAGGUUAGCCGGUCACCGAGAUCGGAAGAGCACACGU
B18: target 1 insC 3' of 17,insA 3' of 15 (mixed)
RNA 1: CACCCGUGCAAAAAUGCAGGGGUCUAAAACUGAGCGGAUAACCUCUCUAUGG
RNA 2: GGGAAUGGAUCCACAUCUACGAAUUCGUACCAUAGCAGAAGGUUAUCCGCUCACCGAGAUCGGAAGAGCACACGU
B19: target 1 C2A,C7A (mixed)
RNA 1: CACCCGUGCAAAAAUGCAGGGGUCUAAAACUGAGCGGAUAACCUCUCUAUGG
RNA 2: GGGAAUGGAUCCACAUCUACGAAUUCGUACCAUAGAGAGGUUAUACGCUAACCGAGAUCGGAAGAGCACACGU
B20: target 1 insC 3' of 18,insG 3' of 2 (mixed)
RNA 1: CACCCGUGCAAAAAUGCAGGGGUCUAAAACUGAGCGGAUAACCUCUCUAUGG
RNA 2: GGGAAUGGAUCCACAUCUACGAAUUCGUACCAUACGAGAGGUUAUCCGCUCGACCGAGAUCGGAAGAGCACACGU
B21: target 1 insC 3' of 15,insC 3' of 12 (mixed)
RNA 1: CACCCGUGCAAAAAUGCAGGGGUCUAAAACUGAGCGGAUAACCUCUCUAUGG
RNA 2: GGGAAUGGAUCCACAUCUACGAAUUCGUACCAUAGAGCAGGCUUAUCCGCUCACCGAGAUCGGAAGAGCACACGU
B22: target 1 insU 3' of 15,insA 3' of 15 (mixed)
RNA 1: CACCCGUGCAAAAAUGCAGGGGUCUAAAACUGAGCGGAUAACCUCUCUAUGG
RNA 2: GGGAAUGGAUCCACAUCUACGAAUUCGUACCAUAGAGUAAGGUUAUCCGCUCACCGAGAUCGGAAGAGCACACGU
B23: target 1 del7 (mixed)
RNA 1: CACCCGUGCAAAAAUGCAGGGGUCUAAAACUGAGCGGAUAACCUCUCUAUGG
RNA 2: GGGAAUGGAUCCACAUCUACGAAUUCGUACCAUAGAGAGGUUAUCGCUCACCGAGAUCGGAAGAGCACACGU
B24: target 1 insA 3' of 10,insC 3' of 8 (mixed)
RNA 1: CACCCGUGCAAAAAUGCAGGGGUCUAAAACUGAGCGGAUAACCUCUCUAUGG
RNA 2: GGGAAUGGAUCCACAUCUACGAAUUCGUACCAUAGAGAGGUUAAUCCCGCUCACCGAGAUCGGAAGAGCACACGU
B25: target 1 insA 3' of 19,insC 3' of 9 (mixed)
RNA 1: CACCCGUGCAAAAAUGCAGGGGUCUAAAACUGAGCGGAUAACCUCUCUAUGG
RNA 2: GGGAAUGGAUCCACAUCUACGAAUUCGUACCAUAAGAGAGGUUACUCCGCUCACCGAGAUCGGAAGAGCACACGU
B26: target 1 A1G,U19G (mixed)
RNA 1: CACCCGUGCAAAAAUGCAGGGGUCUAAAACUGAGCGGAUAACCUCUCUAUGG
RNA 2: GGGAAUGGAUCCACAUCUACGAAUUCGUACCAGAGAGAGGUUAUCCGCUCGCCGAGAUCGGAAGAGCACACGU
B27: target 1 C7G,A14U (mixed)
RNA 1: CACCCGUGCAAAAAUGCAGGGGUCUAAAACUGAGCGGAUAACCUCUCUAUGG
RNA 2: GGGAAUGGAUCCACAUCUACGAAUUCGUACCAUAGAGUGGUUAUGCGCUCACCGAGAUCGGAAGAGCACACGU

The data set concerns the target T1, EsCas13d, nuclease-dead. Nature of the data set: crRNA (strand 1, pre-loaded); Mg2+; 40 mM Tris-HCl pH 7.5, 150 mM NaCl, 6 mM MgCl2, 1 mM DTT, 0.1% Tween-20, 0.2 mg/ml BSA; 25 C; 10 min per concentration, then washed. The settings on record: tags: His6-TwinStrep-SUMO cleaved; N-terminal SNAP kept (SNAP-Surface 488); label: 3' end held by stalled T7 RNA polymerase.
With B1, the dissociation constant Kd is 21.1 ± 3.3 nM.
In turn, B2 showed a Kd of 13.2 ± 1 nM.
Then B3, with 9.7 ± 0.5 nM.
On to B4, for which the Kd stood at 20 ± 1.2 nM.
With B5, binding was put at a Kd of 25.2 ± 3.3 nM.
As to B6, binding was put at a Kd of 14.6 ± 1.3 nM.
Under B7 stands 18.1 ± 0.9 nM; under B8, 9.6 ± 0.7 nM.
Then B9, with 63 ± 15 nM.
Under B10 stands 26.6 ± 1.5 nM.
In the case of B11, the Kd stood at 19.5 ± 1 nM.
Under B12 stands 37 ± 4 nM; under B13, 7.99 ± 0.28 nM.
Under B14 stands 11.8 ± 0.8 nM; under B15, 19.3 ± 1.1 nM.
For the molecule B16, the Kd was found to be 77 ± 35 nM.
Then B17, with 5.52 ± 0.21 nM; and B18, with 28 ± 4 nM; and B19, with 5.34 ± 0.16 nM.
Under B20 stands 38.9 ± 2.9 nM; under B21, 60 ± 13 nM; under B22, 19 ± 1.7 nM.
Then B23, with 8.01 ± 0.33 nM; and B24, with 15.4 ± 0.8 nM; and B25, with 55 ± 4 nM.
In turn, B26 showed a Kd of 51 ± 6 nM.
Then B27, with 66 ± 16 nM.

The record behind these values is PMC10786891, “Massively parallel profiling of RNA-targeting CRISPR-Cas13d”.
